{"source": "patent US20130177919", "proteins": {"B1": {"name": "purified PKD1 (protein)", "chain": "MSAPPVLRPPSPLLPVAAAAAAAAAALVPGSGPGPAPFLAPVAAPVGGISFHLQIGLSREPVLLLQDSSGDYSLAHVREMACSIVDQKFPECGFYGMYDKILLFRHDPTSENILQLVKAASDIQEGDLIEVVLSASATFEDFQIRPHALFVHSYRAPAFCDHCGEMLWGLVRQGLKCEGCGLNYHKRCAFKIPNNCSGVRRRRLSNVSLTGVSTIRTSSAELSTSAPDEPLLQKSPSESFIGREKRSNSQSYIGRPIHLDKILMSKVKVPHTFVIHSYTRPTVCQYCKKLLKGLFRQGLQCKDCRFNCHKRCAPKVPNNCLGEVTINGDLLSPGAESDVVMEEGSDDNDSERNSGLMDDMEEAMVQDAEMAMAECQNDSGEMQDPDPDHEDANRTISPSTSNNIPLMRVVQSVKHTKRKSSTVMKEGWMVHYTSKDTLRKRHYWRLDSKCITLFQNDTGSRYYKEIPLSEILSLEPVKTSALIPNGANPHCFEITTANVVYYVGENVVNPSSPSPNNSVLTSGVGADVARMWEIAIQHALMPVIPKGSSVGTGTNLHRDISVSISVSNCQIQENVDISTVYQIFPDEVLGSGQFGIVYGGKHRKTGRDVAIKIIDKLRFPTKQESQLRNEVAILQNLHHPGVVNLECMFETPERVFVVMEKLHGDMLEMILSSEKGRLPEHITKFLITQILVALRHLHFKNIVHCDLKPENVLLASADPFPQVKLCDFGFARIIGEKSFRRSVVGTPAYLAPEVLRNKGYNRSLDMWSVGVIIYVSLSGTFPFNEDEDIHDQIQNAAFMYPPNPWKEISHEAIDLINNLLQVKMRKRYSVDKTLSHPWLQDYQTWLDLRELECKIGERYITHESDDLRWEKYAGEQGLQYPTHLINPSASHSDTPETEETEMKALGERVSIL"}}, "key": {"[1]": {"biological_target": "T1, recombinant GST-Flag-CERT-S132A(1-138) fusion protein from E. coli", "T1 chain": "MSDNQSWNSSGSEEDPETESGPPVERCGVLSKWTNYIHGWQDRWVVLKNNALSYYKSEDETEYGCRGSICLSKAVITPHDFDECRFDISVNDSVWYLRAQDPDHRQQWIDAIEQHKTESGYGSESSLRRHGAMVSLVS"}, "[2]": {"biological_target": "T2, recombinant GST-Flag-CERT(1-138) wild type fusion protein from E. coli", "T2 chain": "T1 chain with A132S"}}, "note": "Changes are numbered by the printed parent chain."}
{"protein": "B1", "values": [{"measurement": "incorporation of radioactivity ([γ-32P]-ATP, in vitro kinase assay)", "setting": "[1]", "result": "This is significantly impaired in the case of the CERT-S132A fusion protein"}, {"measurement": "incorporation of radioactivity ([γ-32P]-ATP, in vitro kinase assay)", "setting": "[2]", "result": "incorporation of radioactivity is detected"}]}
